# T1: CCK-BR (Homo sapiens, UniProt P32239, L325E)
# T1 sequence (P32239 1-447 L325E): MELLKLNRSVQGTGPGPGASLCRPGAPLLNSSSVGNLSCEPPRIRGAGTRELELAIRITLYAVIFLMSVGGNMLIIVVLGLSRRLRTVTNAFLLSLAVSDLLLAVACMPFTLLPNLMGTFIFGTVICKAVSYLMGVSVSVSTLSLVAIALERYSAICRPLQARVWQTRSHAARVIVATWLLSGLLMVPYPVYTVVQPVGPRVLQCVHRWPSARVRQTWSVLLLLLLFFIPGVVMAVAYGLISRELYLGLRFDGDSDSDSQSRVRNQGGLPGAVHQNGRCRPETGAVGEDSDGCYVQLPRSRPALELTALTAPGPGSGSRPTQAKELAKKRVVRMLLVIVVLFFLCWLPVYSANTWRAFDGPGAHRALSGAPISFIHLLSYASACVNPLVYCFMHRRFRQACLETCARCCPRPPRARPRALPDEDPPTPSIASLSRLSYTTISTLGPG
# B1: Leu325Glu CCK-BR mutant: human CCK-BR with point mutation Leu325Glu, constitutively active (protein, UniProt P32239 1-447, looked up, variant L325E)
# Gastrin/cholecystokinin type …: MELLKLNRSVQGTGPGPGASLCRPGAPLLNSSSVGNLSCEPPRIRGAGTRELELAIRITLYAVIFLMSVGGNMLIIVVLGLSRRLRTVTNAFLLSLAVSDLLLAVACMPFTLLPNLMGTFIFGTVICKAVSYLMGVSVSVSTLSLVAIALERYSAICRPLQARVWQTRSHAARVIVATWLLSGLLMVPYPVYTVVQPVGPRVLQCVHRWPSARVRQTWSVLLLLLLFFIPGVVMAVAYGLISRELYLGLRFDGDSDSDSQSRVRNQGGLPGAVHQNGRCRPETGAVGEDSDGCYVQLPRSRPALELTALTAPGPGSGSRPTQAKELAKKRVVRMLLVIVVLFFLCWLPVYSANTWRAFDGPGAHRALSGAPISFIHLLSYASACVNPLVYCFMHRRFRQACLETCARCCPRPPRARPRALPDEDPPTPSIASLSRLSYTTISTLGPG
# B2: Asn150Ala rat mu opioid receptor: rat mu opioid receptor with Asn to Ala point mutation at position 150 of SEQ ID NO: 1 (protein, UniProt P33535 1-398, looked up, variant N150A)
# Mu-type opioid receptor: MDSSTGPGNTSDCSDPLAQASCSPAPGSWLNLSHVDGNQSDPCGLNRTGLGGNDSLCPQTGSPSMVTAITIMALYSIVCVVGLFGNFLVMYVIVRYTKMKTATNIYIFNLALADALATSTLPFQSVNYLMGTWPFGTILCKIVISIDYYAMFTSIFTLCTMSVDRYIAVCHPVKALDFRTPRNAKIVNVCNWILSSAIGLPVMFMATTKYRQGSIDCTLTFSHPTWYWENLLKICVFIFAFIMPVLIITVCYGLMILRLKSVRMLSGSKEKDRNLRRITRMVLVVVAVFIVCWTPIHIYVIIKALITIPETTFQTVSWHFCIALGYTNSCLNPVLYAFLDENFKRCFREFCIPTSSTIEQQNSTRVRQNTREHPSTANTVDRTNHQLENLEAETAPLP
# B3: wild-type rat mu opioid receptor: wild-type rat mu opioid receptor expressed from an expression vector in HEK293 cells (protein, UniProt P33535 1-398, looked up)
# Mu-type opioid receptor: MDSSTGPGNTSDCSDPLAQASCSPAPGSWLNLSHVDGNQSDPCGLNRTGLGGNDSLCPQTGSPSMVTAITIMALYSIVCVVGLFGNFLVMYVIVRYTKMKTATNIYIFNLALADALATSTLPFQSVNYLMGTWPFGTILCKIVISIDYYNMFTSIFTLCTMSVDRYIAVCHPVKALDFRTPRNAKIVNVCNWILSSAIGLPVMFMATTKYRQGSIDCTLTFSHPTWYWENLLKICVFIFAFIMPVLIITVCYGLMILRLKSVRMLSGSKEKDRNLRRITRMVLVVVAVFIVCWTPIHIYVIIKALITIPETTFQTVSWHFCIALGYTNSCLNPVLYAFLDENFKRCFREFCIPTSSTIEQQNSTRVRQNTREHPSTANTVDRTNHQLENLEAETAPLP
# Key:
# [1] = molecular target: T1, CCK-BR; assay: SMS-Luc luciferase reporter assay in HEK293 cells; format: cell-based; parameters: expressed in transfected cells; host or cells: HEK293; details: FIG. 2
# Excerpt: HEK293 cells were transfected (as described above) with SMS-Luc and an expression vector encoding any one of pcDNA1, wild-type CCK-BR, or Leu325Glu CCK-BR.
# [2] = molecular target: T1, CCK-BR; parameters: expressed in transfected cells; host or cells: COS-7; details: COS-7, absence of agonist; cited from earlier work
# [3] = molecular target: T2, rat mu opioid receptor (Rattus norvegicus, UniProt P33535, N150A); assay: CRE-Luc luciferase reporter assay with forskolin stimulation; format: cell-based; details: 0.5 μM forskolin; a decrease means more Gαi signaling
# T2 construct: expressed in transfected cells; host or cells: HEK293
# Excerpt: Similarly, a constitutively active rat mu opioid receptor was identified using a reporter construct sensitive to Gαi coupling (see FIG. 3). The response element employed in this assay was the cAMP-response element (CRE), which is sensitive to Gαi mediated changes in intracellular levels of cAMP. Signaling through the rat mu opioid receptor via Gαi inhibits adenylate cyclase, causing a decrease in intracellular cAMP. Therefore, an increase in rat mu opioid receptor signaling induces a decrease in CRE mediated reporter activity.
# Prior to the present invention, Gαi-mediated decreases in intracellular cAMP were measured by (1) stimulating cells with forskolin, which causes receptor-independent activation of adenylate cyclase and generates an intracellular pool of cAMP; (2) stimulating the cells with ligand; and (3) measuring the ligand-induced, receptor-dependent Gαi-mediated decrease in the intracellular cAMP pool (e.g., using a radioimmunoassay (e.g., New England Nuclear, Boston, Mass.)). […] The basal (and ligand-induced) level of receptor activity was then measured using a standard luciferase assay (see FIG. 3). Coexpression of the receptor of interest with a luciferase reporter gene construct allows one to measure light emission as a readout for basal signaling.
# [4] = tested on: rat mu opioid receptor; assay: SRE-Luc/Gq5i luciferase reporter assay in HEK293 cells; format: cell-based; details: HEK293, SRE + Gq5i; for Average Ligand Stimulated Activity (Light Emission): ligand DAMGO; for Average Basal Activity (Light Emission): no ligand
# Description: (§1) Reagents & Solutions: The cell culture media used in the assays described below was Gibco BRL #12100-046. This media was made according to manufacturer's recipe, pH adjusted to 7.2, filtered (0.22 micron pore), and supplemented with 1% Pen/Strep (Gibco #15140-122; 100% penicillin G 10,000 units/ml, and streptomycin 10,000 μg/ml) and 10% fetal bovine serum. Cell culture media lacking 10% fetal bovine serum was also generated. DNA used in the transfection experiments was purified and quantitated by measuring the absorbance at OD260. A LucLite Luciferase Assay Kit (Packard) was used to quantitate luciferase activity. Transfections were carried out using LipofectAMINE Reagent (Gibco #18324-012).
# (§2) Constitutive activity of the Asn150Ala mutant rat mu opioid receptor was assessed using a luciferase assay. The rat mu opioid receptor is a Gαi coupled receptor. Therefore we chose to use the Gq5i reporter system, described in detail above (Broach and Thorner, supra), which switches the signaling pathway from Gαi to Gαq for reliable positive readout. HEK293 cells were transfected with the reporter construct SRE-Luc, an expression vector containing nucleic acid encoding Gq5i (Broach and Thorner, supra), and an expression vector containing nucleic acid encoding either the wild-type or the Asn150Ala mutant rat mu opioid receptor. Basal and ligand-stimulated luciferase activity was measured. The ligand used in this assay was [D-Ala^2-MePhe^4, Gly-ol^5]enkephalin] (DAMGO). As a negative control, HEK293 cells were transfected with pcDNA1 (empty vector DNA), SRE-Luc, and the expression vector containing nucleic acid encoding Gq5i (Broach and Thorner, supra).
# (§3) The luciferase assay was carried out as follows. On day 1, HEK293 cells in a T75 flask were washed with 15 ml serum-free media (or PBS), trypsinized with 5 ml 0.05% trypsin-EDTA (Gibco #25300-062), incubated at 37° C. for 3 minutes at which time 6-7 ml complete HEK293 media (Gibco #12100-046) and 10% Fetal Bovine Serum (Intergen #1050-90) were added. Thereafter, cells were collected in 50 ml centrifuge tubes, pelleted at 800-900 rpm (RCF ˜275), and resuspend in 20 ml complete media. The cells were counted using a haemocytometer and diluted to 85,000 cells/ml in complete media. Using a repeat pipettor or cell plater, 100 μl of cells were added to each well of a Primaria 96-well plate (Falcon #353872). Cells were then incubated at 37° C., 5% CO2 until use at 48 hours.
# (§4) On day 3, cells were transfected using LipofectAMINE™ according to the manufacturer's protocol (Gibco #18324-012, Rockville, Md.).
# (§5) On day 4, cells were stimulated as follows. Ligands for the receptor, either DAMGO or a non-peptide ligand (e.g., naltrexene or nalonin), were diluted to a desired concentration in serum-free media containing 0.15 mM PMSF (or other protease inhibitor(s)). The transfection media was then completely removed from cells and 50-100 μl stimulation media (i.e., media containing candidate ligands or the corresponding ligand free solvent) was added to each well. The cells were incubated for the desired time (standard is overnight) at 37° C., 5% CO2, although the optimal stimulation time may vary depending on the particular receptor used. The optimal incubation time may be determined systematically by testing a range of incubation times and determining which one yields the highest level of stimulation. For concomitant assessment of two ligands (e.g., ligand induced inhibition of forskolin stimulated CRE activity) each stimulus is prepared at two times the desired final concentration and mixed in equal volumes prior to addition to cells.
# (§6) On day 5, an assay for luciferase expression was carried out according to the manufacturer's instructions (Packard, Meridin, Conn.)
# [5] = molecular target: T2, rat mu opioid receptor; assay: as above; format: cell-based
# Description: as §1, §2, §3, §4, §5, §6
molecule,measurement,setting,value
B1,basal level activity compared to wild-type CCK-BR,[1],increased basal level activity
same,constitutive production of inositol phosphates,[2],levels exceeding wild-type CCK-BR
B2,basal CRE-Luc reporter activity compared to wild-type receptor,[3],reduction in basal activity
same,Average Ligand Stimulated Activity (Light Emission),[4],"86,996"
same,Average Basal Activity (Light Emission),[4],"*56,498"
same,basal activity relative to the maximal level of ligand-stimulated second messenger signaling,[5],exceeded 50%
same,stimulation of basal level activity (increase in basal activity vs wild-type),"[5]; HEK293, SRE + Gq5i, listed as Asn150Ala mutant mu opioid receptor",approximately 6.5 fold
B3,Average Ligand Stimulated Activity (Light Emission),[4],"87,461"
same,Average Basal Activity (Light Emission),[4],"8,436"

# Reference: patent publication US20020127539A1, “Assays for identifying receptors having alterations in signaling” (priority 2000, published 2002)
